Laboratory results as given in article PMC7101349, “Synthetic antibodies against BRIL as universal fiducial marks for single−particle cryoEM structure determination of membrane proteins” (Nature Communications, 2020).

Legend:
Conditions in all cases: both partners purified
His10-BRIL = biological target: T1, His10-BRIL (Escherichia coli (engineered cytochrome …, stabilised)); test: SPR; His10-BRIL immobilised on a nitrilotriacetic acid sensor chip via the N-terminal His10 tag; 2-fold dilution series of sABs at 30 μl/min; 20 °C; BIACORE 3000; 1:1 interaction model
T1 construct: BRIL, an engineered variant of apocytochrome b562; Immobilised by its N-terminal His10 tag for SPR; also called wt BRIL; source: E. coli BL21 (DE3), purified (Ni-NTA); not shown: His10, N-terminal, kept

[1] = biological target: T2, BRIL-2turn-KcsA (construct 7) (Escherichia coli (engineered cytochrome …, chimera)); test: SEC; analytical SEC (aSEC): BRIL-fused targets (in detergent, nanodiscs or amphipols) mixed with 1.2–1.5-fold molar excess of sAB, 30 min on ice; Superdex 200 Increase or Superose 6 Increase; retention volume and gel electrophoresis
T2 construct: BRIL, an engineered variant of apocytochrome b562, in place of the N-terminal helix of KcsA; helical linker, 2 turn; potassium channel KcsA; the N-terminal helix (residues 1-23) replaced by BRIL and linker; also called construct with 2-turn linker; source: E. coli BL21(DE3)plysS, purified (Talon, SEC) in DDM

[2] = biological target: T3, BRIL-3turn-KcsA (construct 8) (Escherichia coli (engineered cytochrome …, chimera)); test: as above
T3 construct: BRIL, an engineered variant of apocytochrome b562, in place of the N-terminal helix of KcsA; helical linker, 3 turn; potassium channel KcsA; the N-terminal helix (residues 1-23) replaced by BRIL and linker; source: E. coli BL21(DE3)plysS, purified (Talon, SEC) in DDM

[3] = biological target: T4, BRIL-AARAAAA-KcsA (construct 6) (Escherichia coli (engineered cytochrome …, chimera)); test: as above
T4 construct: BRIL, an engineered variant of apocytochrome b562, in place of the N-terminal helix of KcsA; helical linker; potassium channel KcsA; the N-terminal helix (residues 1-23) replaced by BRIL and linker; also called seven residues (-AARAAAA-) linker construct; source: E. coli BL21(DE3)plysS, purified (Talon, SEC) in DDM

[4] = biological target: T5, BRIL-AAAA-KcsA (construct 3, 1 turn) (Escherichia coli (engineered cytochrome …, chimera)); test: as above
T5 construct: BRIL, an engineered variant of apocytochrome b562, in place of the N-terminal helix of KcsA; helical linker, 1 turn; potassium channel KcsA; the N-terminal helix (residues 1-23) replaced by BRIL and linker; also called four residues or 1 turn (-AAAA-) linker construct; source: E. coli BL21(DE3)plysS, purified (Talon, SEC) in DDM

[5] = biological target: T6, BRIL-AARAAA-KcsA (construct 5) (Escherichia coli (engineered cytochrome …, chimera)); test: as above
T6 construct: BRIL, an engineered variant of apocytochrome b562, in place of the N-terminal helix of KcsA; helical linker; potassium channel KcsA; the N-terminal helix (residues 1-23) replaced by BRIL and linker; also called six residues (-AARAAA-) linker construct; source: E. coli BL21(DE3)plysS, purified (Talon, SEC) in DDM

[6] = biological target: T7, BRIL-AAA-KcsA (construct 2) (Escherichia coli (engineered cytochrome …, chimera)); test: as above
T7 construct: BRIL, an engineered variant of apocytochrome b562, in place of the N-terminal helix of KcsA; helical linker; potassium channel KcsA; the N-terminal helix (residues 1-23) replaced by BRIL and linker; also called three residues (-AAA-) linker construct; source: E. coli BL21(DE3)plysS, purified (Talon, SEC) in DDM

[7] = biological target: T8, BRIL-AAAAA-KcsA (construct 4) (Escherichia coli (engineered cytochrome …, chimera)); test: as above
T8 construct: BRIL, an engineered variant of apocytochrome b562, in place of the N-terminal helix of KcsA; helical linker; potassium channel KcsA; the N-terminal helix (residues 1-23) replaced by BRIL and linker; also called five residues (-AAAAA-) linker construct; source: E. coli BL21(DE3)plysS, purified (Talon, SEC) in DDM

B1: sAB24 (Fab, V domains shown)
VH: EVQLVESGGGLVQPGGSLRLSCAASGFNFSSSSIHWVRQAPGKGLEWVAYISSSSGSTSYADSVKGRFTISADTSKNTAYLQMNSLRAEDTAVYYCARWGYWPGEPWWKAFDYWGQGTLVTVSS
VL: DIQMTQSPSSLSASVGDRVTITCRASQSVSSAVAWYQQKPGKAPKLLIYSASSLYSGVPSRFSGSRSGTDFTLTISSLQPEDFATYYCQQYLYYSLVTFGQGTKVEIK
notes: as the heavy chain of m3 (BAG2), with CDR-H1 32-37 FSSSSI in place of VVDFSL; as the light chain of m3 (BAG2); Parent of BAG2; also called wt sAB24; wt sAB; source: E. coli BL21(gold), purified
For B1, which Kd (His10-BRIL) is on record?
Its Kd is about 23 nM.

B2: BAG2 S36A (Fab, V domains shown)
VH: EVQLVESGGGLVQPGGSLRLSCAASGFNVVDFALHWVRQAPGKGLEWVAYISSSSGSTSYADSVKGRFTISADTSKNTAYLQMNSLRAEDTAVYYCARWGYWPGEPWWKAFDYWGQGTLVTVSS
VL: DIQMTQSPSSLSASVGDRVTITCRASQSVSSAVAWYQQKPGKAPKLLIYSASSLYSGVPSRFSGSRSGTDFTLTISSLQPEDFATYYCQQYLYYSLVTFGQGTKVEIK
notes: as the heavy chain of m3 (BAG2) with the stated change in CDR-H1; as the light chain of m3 (BAG2)
With B2 as the binder, how does the Kd (His10-BRIL) read?
The Kd was 5.3 nM.

B3: BAG2 F35A (Fab, V domains shown)
VH: EVQLVESGGGLVQPGGSLRLSCAASGFNVVDASLHWVRQAPGKGLEWVAYISSSSGSTSYADSVKGRFTISADTSKNTAYLQMNSLRAEDTAVYYCARWGYWPGEPWWKAFDYWGQGTLVTVSS
VL: DIQMTQSPSSLSASVGDRVTITCRASQSVSSAVAWYQQKPGKAPKLLIYSASSLYSGVPSRFSGSRSGTDFTLTISSLQPEDFATYYCQQYLYYSLVTFGQGTKVEIK
notes: as for B2
For B3, which Kd (His10-BRIL) is on record?
Its Kd is 7.6 nM.

B4: sAB BAG2 (Fab, V domains shown)
VH: EVQLVESGGGLVQPGGSLRLSCAASGFNVVDFSLHWVRQAPGKGLEWVAYISSSSGSTSYADSVKGRFTISADTSKNTAYLQMNSLRAEDTAVYYCARWGYWPGEPWWKAFDYWGQGTLVTVSS
VL: DIQMTQSPSSLSASVGDRVTITCRASQSVSSAVAWYQQKPGKAPKLLIYSASSLYSGVPSRFSGSRSGTDFTLTISSLQPEDFATYYCQQYLYYSLVTFGQGTKVEIK
notes: Fab heavy chain; CDR-H1 residues 32-37 are VVDFSL; Fab light chain; humanized Fab scaffold of phage library E; source: E. coli BL21(gold), purified
For B4, which “stoichiometry N” value [1] is on record?
Its value is 4.

And the “stoichiometry N” value [2]?
The value was 4.

What about the “stoichiometry N” value [3] of the same binder?
Its value is 4.

And the “stoichiometry N” value [4]?
Its value is 4.

And the “stoichiometry N” value [5]?
Its value is 4.

What about the “stoichiometry N” value [6] of the same binder?
The value was 4.

What about the “stoichiometry N” value [7] of the same binder?
Its value is 4.

What about the Kd (His10-BRIL) of the same binder?
Its Kd is about 0.3 nM.
